Tests used:
AAV1 capsid = test: AAVX affinity HPLC, five consecutive small-scale preps on the same resin, qPCR of fractions
AAV2_HSPG capsid = test: static binding assay on AAVX resin, qPCR of vector genomes
PHP.B capsid = test: as above
AAV6.2 capsid = test: as above
[1] = target: AAV2 capsid (AAV particles of serotype AAV2) (UniProt P03135); test: as above
AAV5 capsid = test: as above
rh10 capsid = test: as above
rh32.33 capsid = test: as above
AAV7m8 capsid = test: as above
AAV8 capsid = test: as above
AAV7 capsid = test: as above
AAV9 capsid [2] = test: as above
AAV4 capsid = test: as above
Anc80 capsid = test: as above
PHP.eB capsid = test: AAVX affinity HPLC at room temperature (24 C), qPCR of flow-through
AAV9 capsid [3] = test: as above

Sequence of UniProt P03135 (P03135 whole entry): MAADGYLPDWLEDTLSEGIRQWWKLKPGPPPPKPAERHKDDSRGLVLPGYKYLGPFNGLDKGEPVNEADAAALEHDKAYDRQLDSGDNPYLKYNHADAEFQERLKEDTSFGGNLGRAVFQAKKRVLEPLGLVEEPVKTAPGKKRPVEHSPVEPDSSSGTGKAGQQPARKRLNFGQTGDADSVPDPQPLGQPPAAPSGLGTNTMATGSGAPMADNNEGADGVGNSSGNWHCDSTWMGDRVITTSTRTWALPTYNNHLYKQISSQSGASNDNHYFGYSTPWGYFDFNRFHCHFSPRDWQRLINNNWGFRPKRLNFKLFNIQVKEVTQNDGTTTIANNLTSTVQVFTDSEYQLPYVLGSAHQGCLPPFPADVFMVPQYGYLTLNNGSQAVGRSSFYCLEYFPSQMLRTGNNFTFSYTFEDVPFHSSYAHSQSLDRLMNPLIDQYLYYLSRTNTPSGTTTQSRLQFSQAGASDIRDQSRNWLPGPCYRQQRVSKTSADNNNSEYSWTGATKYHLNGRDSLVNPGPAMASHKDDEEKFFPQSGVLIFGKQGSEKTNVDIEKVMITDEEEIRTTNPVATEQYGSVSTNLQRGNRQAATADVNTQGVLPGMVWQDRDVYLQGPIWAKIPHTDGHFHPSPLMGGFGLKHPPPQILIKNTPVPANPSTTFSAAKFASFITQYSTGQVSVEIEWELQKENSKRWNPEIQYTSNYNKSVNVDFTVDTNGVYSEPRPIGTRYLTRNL

With “POROS CaptureSelect AAVX resin ligand (camelid heavy-chain-only single-domain antibody fragment linked to poly[styrene divinylbenzene] beads) (VHH)” the percent of input virus in flow-through (AAV1 capsid) was under 2%, the recovery (percent vector genomes of input) (AAV2_HSPG capsid) was over 95% and the recovery (percent vector genomes of input) (PHP.B capsid) was over 95%. The recovery (percent vector genomes of input) (AAV6.2 capsid) was over 95%, the recovery (percent vector genomes of input) [1] was over 95% and the recovery (percent vector genomes of input) (AAV5 capsid) was over 95%. The recovery (percent vector genomes of input) (rh10 capsid) was over 95%, the recovery (percent vector genomes of input) (rh32.33 capsid) was over 95% and the recovery (percent vector genomes of input) (AAV7m8 capsid) was over 95%. It also gave a recovery (percent vector genomes of input) (AAV8 capsid) of over 95%, a recovery (percent vector genomes of input) (AAV7 capsid) of over 95% and a recovery (percent vector genomes of input) (AAV9 capsid [2]) of over 95%. It also gave a recovery (percent vector genomes of input) (AAV4 capsid) of over 95%, a recovery (percent vector genomes of input) (Anc80 capsid) of 80% and a fraction of input AAV in the flow-through (PHP.eB capsid) of under 5%. For the same substance, the fraction of input AAV in the flow-through (AAV9 capsid [3]) was under 5%.

From patent US20230303983A1
